Laboratory results: US20220064286A1 (Genentech, published 2022)

T1: human TIGIT protein (human, UniProt Q495A1 22-141, limits assumed)
T1 construct: Recombinant protein (Genentech) used in ELISA screening and as SPR analyte; also called TIGIT antigen
T1 sequence: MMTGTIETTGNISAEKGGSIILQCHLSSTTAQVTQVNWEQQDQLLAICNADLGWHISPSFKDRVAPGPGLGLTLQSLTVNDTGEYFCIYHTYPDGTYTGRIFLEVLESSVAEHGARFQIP

T2: human TIGIT on activated human primary T cells (human, UniProt Q495A1 22-244)
T2 construct: also called Human T cell
T2 sequence: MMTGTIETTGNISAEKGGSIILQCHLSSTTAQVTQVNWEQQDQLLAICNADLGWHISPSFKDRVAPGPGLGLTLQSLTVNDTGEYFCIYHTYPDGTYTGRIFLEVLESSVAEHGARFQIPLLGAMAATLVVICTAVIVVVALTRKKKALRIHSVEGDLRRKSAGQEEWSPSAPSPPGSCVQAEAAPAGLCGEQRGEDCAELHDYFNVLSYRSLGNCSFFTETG

T3: full-length human TIGIT on CHO cells (human, UniProt Q495A1 22-244)
T3 construct: also called CHO-hTIGIT; hu TIGIT
T3 sequence: T2 sequence

B1: rat7E7 (antibody, V domains shown)
VH: EVQLQQSGPELQRPGASVKLSCKATGYTFTEYSIYWVKQRPKQSLEIIGRIDPKNGRTYYVDKFKNRATLTADTSSNTAYMQLSSLTSEDTATYFCTRIYGFYFDFWGQGVMVTASS
VL: NIHLTQSPSLLSASVGDRVTLSCKGSQNVNKYLVWYQQKLGEAPKLLIYNTDNLQSGIPSRFSGSGSGTDYTLTISSLQPEDAATYFCYQYNNGFTFGSGTKLEIK
notes: SD rat-derived; rat V domains as FR/HVR pieces; also called 1.7E7; Chimeric 1.7E7
B2: rat6B2 (antibody, V domains shown)
VH: QVSLKESGPGILQPSHTLSLTCSFSGFSLSTYGMGVSWIRQPSEKGLEWLASIWWNGNTYYNPSLKSRLTVSKDASNDQAFLNVTSVDTTDTATYYCAHTGGAVITWFAYWGQGTLVTVSS
VL: NIVMTQSPKSMSISVGDRVTMNCKASQSVGKNIAWYQQKPGQSPKLLIYYASNRYTGVPDRFTGGGSGTDFTLTINTVQAEDAAFFYCQHIYNSPYPFGTGTKLEIK
notes: SD rat-derived; rat V domains as FR/HVR pieces; also called 1.6B2; Chimeric 1.6B2

Legend:
[1] = target: T1, human TIGIT protein; assay: SPR, captured mAb
Procedure: (§1) Briefly, a series S CM5 biosensor chip was activated with N-ethyl-N′-(3-dimethylaminopropyl)-carbodiimide hydrochloride (EDC) and N-hydroxysuccinimide (NHS) reagents according to the supplier's (GE Healthcare Biosciences, Piscataway, N.J.) instructions, and a human antibody capture kit was applied to couple goat anti-human Fc IgGs in order to achieve approximately 10,000 response units (RU) on each flow cell, followed by blocking un-reacted groups with 1M ethanolamine.
(§2) (flow rate: 30 μl/min) with no regeneration between injections. The sensorgrams were recorded and evaluated by BIAcore™ T200 Evaluation Software (version 2.0) after subtraction of reference cell signal. Association rates (kₒₙ) and dissociation rates (koff) were calculated using a simple one-to-one Langmuir binding model. The equilibrium dissociation constant (KD) was calculated as the ratio koff/kₒₙ.
(§3) The first humanized versions, h6B2, L1H1, h10A5.L1H1, h7E7, L1H1, and h15C8.L1H1, which contain both rat CDRs and framework residues at Vernier positions, and the fully humanized versions, h6B2.L2H5, h10A5.L4H4, h7E7.L5H9, and h15C8.L5H9, which contain only rat CDRs were subject to BIAcore affinity measurement by comparison with original rat antibodies, rat6B2, rat10A5, rat7E7 and rat 15C8. For binding affinity determinations of TIGIT antibodies against human TIGIT, cynomolgus monkey TIGIT and human alanine-scanned TIGIT mutants by single-cycle kinetics, Surface Plasmon Resonance (SRP) measurement with a BIACORE™-T200 instrument was used, as described above.

[2] = target: T4, cynomolgus monkey (cyno) TIGIT protein (cynomolgus monkey, UniProt A0A7N9I9V4 89-209); assay: SPR, captured mAb
Procedure: as §1, §2, §3

[3] = target: T1, human TIGIT protein; assay: SPR, bivalent affinity
[4] = target: T4, cynomolgus monkey (cyno) TIGIT protein; assay: SPR, bivalent affinity
[5] = target: T1, human TIGIT protein; assay: SPR, monovalent affinity
[6] = target: T4, cynomolgus monkey (cyno) TIGIT protein; assay: SPR, monovalent affinity
[7] = target: T2, human TIGIT on activated human primary …; assay: FACS, activated human T cells
Procedure: The OMT- and SD-derived anti-TIGIT clones were also tested for binding to human primary T cells by FACS analysis. Human PBMC were activated for with plate-bound anti-CD3 (5 μg/ml) and soluble anti-CD28 (2 μg/ml) for 2 days as described in Yu et al. Nature Immunology. 10: 48-57, 2009, which is incorporated herein by reference in its entirety. Cells were then washed and incubated with incubated with each anti-TIGIT antibody at the indicated concentrations and then detected via a FITC-labeled anti-hIgG antibody. Cells were also stained with anti-CD4, anti-CD8, and anti-CD25 (BD bioscience). Human CD4+(CD25+CD4+) and human CD8+(CD25+CD8+) T cells were assessed for binding by the anti-TIGIT clones by FACS. All samples were acquired on LSR-II or LSR-Fortessa instruments (BD Biosciences) and analyzed using FlowJo software (Treestar).

[8] = target: T3, full-length human TIGIT on CHO cells; assay: FACS, CHO cells expressing TIGIT
[9] = target: T3, full-length human TIGIT on CHO cells; assay: FACS, PVR-Fc on CHO-TIGIT cells; competitor PVR-Fc
Procedure: (§4) These studies were further validated in CHO-TIGIT PVR blocking experiments in which TIGIT-expressing CHO cells were incubated with labeled PVR-Fc fusion protein in the presence of anti-TIGIT antibody or an human IgG1 control (FIG. 4A).

[10] = target: T5, cynomolgus TIGIT on CHO cells (cynomolgus monkey, UniProt A0A7N9I9V4 89-312); assay: FACS on CHO cells expressing cyno TIGIT, FITC anti-hIgG detection
T5 construct: whole, on cells; also called CHO-cyTIGIT; cyTIGIT
Procedure: Additional in vitro binding studies of the OMT- and SD-derived anti-TIGIT antibody clones were conducted. The OMT- and SD-derived anti-TIGIT clones were tested for binding to human and cyno TIGIT expressed on the surface of CHO cells by FACS analysis. CHO cells were transfected with full-length human TIGIT (CHO-hTIGIT) or cynomologous TIGIT (CHO-cyTIGIT). The TIGIT-expressing CHO cells were incubated with each anti-TIGIT antibody at the indicated concentrations and then detected via a FITC-labeled anti-hIgG antibody (see FIG. 1A) using standard methods. The results, shown in Table 6 and FIGS. 1B-1E, corroborate the results from the BIACORE™ analysis, described above.

[11] = target: T5, cynomolgus TIGIT on CHO cells; assay: FACS blocking assay: labelled PVR-Fc (blocked ligand) on CHO cells expressing cyno TIGIT
Procedure: as §4

T4 sequence (A0A7N9I9V4 entry or part of it): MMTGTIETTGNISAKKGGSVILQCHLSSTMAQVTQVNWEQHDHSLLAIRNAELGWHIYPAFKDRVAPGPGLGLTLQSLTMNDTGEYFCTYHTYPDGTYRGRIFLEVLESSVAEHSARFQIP
T5 sequence (A0A7N9I9V4 entry or part of it): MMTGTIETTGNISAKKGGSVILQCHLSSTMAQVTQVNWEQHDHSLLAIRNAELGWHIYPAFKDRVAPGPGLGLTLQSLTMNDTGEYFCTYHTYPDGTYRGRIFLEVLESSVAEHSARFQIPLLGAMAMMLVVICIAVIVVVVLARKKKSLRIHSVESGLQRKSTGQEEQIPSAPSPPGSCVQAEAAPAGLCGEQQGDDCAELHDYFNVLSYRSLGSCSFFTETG

Binder | Kd [1] [nM] | koff [1] [s⁻¹] | kon [1] [M⁻¹ s⁻¹] | Kd [2] [nM] | koff [2] [s⁻¹] | kon [2] [M⁻¹ s⁻¹] | Kd [3] [nM] | Kd [4] [nM] | Kd [5] [nM] | Kd [6] [nM] | EC50 [7] [nM] | EC50 [8] [nM] | IC50 [9] [nM] | EC50 (read off the curve) [10] [nM] | IC50 (read off the curve) [11] [nM]
B1 | 0.03 | 1.8e-05 | 568000 | 0.07 | 2.7e-05 | 399000 | ≤ 0.004 | ≤ 0.009 | ≤ 0.018 | 0.067 | 0.11 | 0.1 | 0.04 | ~0.3 | ~0.3
B2 | 0.04 | 3.5e-05 | 997000 | 0.29 | 0.000202 | 688000 | ≤ 0.027 | 0.091 | 0.035 | 0.29 | 0.09 | 0.52 | 0.08 | – | –
